Data from article PMC9352680, “A comprehensive thermodynamic model for RNA binding by the Saccharomyces cerevisiae Pumilio protein PUF4”.

T1: PUF4 RNA-binding domain (Saccharomyces cerevisiae, UniProt P25339 537-888)
T1 sequence: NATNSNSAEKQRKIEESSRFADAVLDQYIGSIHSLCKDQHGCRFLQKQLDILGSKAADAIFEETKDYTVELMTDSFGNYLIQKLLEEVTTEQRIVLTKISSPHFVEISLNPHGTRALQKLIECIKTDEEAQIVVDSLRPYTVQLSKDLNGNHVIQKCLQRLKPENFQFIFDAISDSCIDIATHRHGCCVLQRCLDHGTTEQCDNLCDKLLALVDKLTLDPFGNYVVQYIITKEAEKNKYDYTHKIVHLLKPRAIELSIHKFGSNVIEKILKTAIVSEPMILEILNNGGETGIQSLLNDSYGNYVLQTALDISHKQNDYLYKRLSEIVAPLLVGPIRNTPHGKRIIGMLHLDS


Each binder was assayed against T1, PUF4 RNA-binding domain (assay: Mg; RNA-MaP; 20 mM Na-HEPES pH 7.4, 30 mM KOAc, 0.75 mM MgCl2, 0.1% Tween-20, 5% glycerol, 0.1 mg/mL BSA, 2 mM DTT; 25 C; 0.0125-409.6 nM protein). Conditions: tags: N-His6-TEV cleaved; C-SNAP kept, Cy3B-labelled; label: tethered on chip by stalled RNA polymerase.

Binder	Kd [nM]
UCUCUUUGUAACACCUUCUCUU (ssRNA) [Ic_S1_P5E.1_K5.1_C5.1_H5.1_A5.1_[T5A]_[T6C]_F5.1_[T8C]_[T9C]_[A10T]_T5.1]	621
UCUCUUUGUACUUGUUUCUCUU (ssRNA) [Ic_S1_P5E.1_K5.1_C5.1_H5.1_A5.1_[T5C]_[A7T]_F5.1_[T8G]_[A10T]_T5.1]	87.4
UCUCUUUGUACAUAGUUCUCUU (ssRNA) [Ic_S1_P5E.1_K5.1_C5.1_H5.1_A5.1_[T5C]_[T6A]_[A7T]_F5.1_[T8A]_[T9G]_[A10T]_T5.1]	4.18
UCUCUUUGUAAUUCCUUCUCUU (ssRNA) [Ic_S1_P5E.1_K5.1_C5.1_H5.1_A5.1_[T5A]_[A7T]_F5.1_[T8C]_[T9C]_[A10T]_T5.1]	448
UCUCUUUGUAGCUGCUUCUCUU (ssRNA) [Ic_S1_P5E.1_K5.1_C5.1_H5.1_A5.1_[T5G]_[T6C]_[A7T]_F5.1_[T8G]_[T9C]_[A10T]_T5.1]	2150
UCUCUUUGUAAUCCGCUCUCUU (ssRNA) [Ic_S1_P5E.1_K5.1_C5.1_H5.1_A5.1_[T5A]_[A7C]_F5.1_[T8C]_[T9G]_[A10C]_T5.1]	1660
UCUCUUUGUAUGUGCCUCUCUU (ssRNA) [Ic_S1_P5E.1_K5.1_C5.1_H5.1_A5.1_[T6G]_[A7T]_F5.1_[T8G]_[T9C]_[A10C]_T5.1]	838
UCUCUUUGUACGUGUUUCUCUU (ssRNA) [Ic_S1_P5E.1_K5.1_C5.1_H5.1_A5.1_[T5C]_[T6G]_[A7T]_F5.1_[T8G]_[A10T]_T5.1]	98.8
UCUCUUUGUAUCAUGCUCUCUU (ssRNA) [Ic_S1_P5E.1_K5.1_C5.1_H5.1_A5.1_[T6C]_F5.1_[T9G]_[A10C]_T5.1]	11.3
UCUCUUUGUAACCGGUUCUCUU (ssRNA) [Ic_S1_P5E.1_K5.1_C5.1_H5.1_A5.1_[T5A]_[T6C]_[A7C]_F5.1_[T8G]_[T9G]_[A10T]_T5.1]	> 2300
UCUCUUUGUAGCAUACUCUCUU (ssRNA) [Ic_S1_P5E.1_K5.1_C5.1_H5.1_A5.1_[T5G]_[T6C]_F5.1_[T9A]_[A10C]_T5.1]	8.64
UCUCUUUGUACCAUCCUCUCUU (ssRNA) [Ic_S1_P5E.1_K5.1_C5.1_H5.1_A5.1_[T5C]_[T6C]_F5.1_[T9C]_[A10C]_T5.1]	12.5
UCUCUUUGUAAGUUAGUCUCUU (ssRNA) [Ic_S1_P5E.1_K5.1_C5.1_H5.1_A5.1_[T5A]_[T6G]_[A7T]_F5.1_[T9A]_[A10G]_T5.1]	17.2
UCUCUUUUUGUAUAUCUCUU (ssRNA) [Ib_S1_P3E.1_K3.1_C3.1_H3.1_[G2T]_[A4G]_A3.1_F3.1_T3.1]	25.1
UCUCUUUGUACUCUACUCUCUU (ssRNA) [Ic_S1_P5E.1_K5.1_C5.1_H5.1_A5.1_[T5C]_[A7C]_F5.1_[T9A]_[A10C]_T5.1]	4.81
UCUCUUUGUACGAAUGUCUCUU (ssRNA) [Ic_S1_P5E.1_K5.1_C5.1_H5.1_A5.1_[T5C]_[T6G]_F5.1_[T8A]_[A10G]_T5.1]	819
UCUCUUUGUAAUCAGCUCUCUU (ssRNA) [Ic_S1_P5E.1_K5.1_C5.1_H5.1_A5.1_[T5A]_[A7C]_F5.1_[T8A]_[T9G]_[A10C]_T5.1]	1300
UCUCUUUGCGUAUAUCUCUU (ssRNA) [Ib_S1_P3E.1_K3.1_C3.1_H3.1_[T3C]_[A4G]_A3.1_F3.1_T3.1]	> 2300
UCUCUUUGUAUACCCGUCUCUU (ssRNA) [Ic_S1_P5E.1_K5.1_C5.1_H5.1_A5.1_[T6A]_[A7C]_F5.1_[T8C]_[T9C]_[A10G]_T5.1]	675
UCUCUUUGUAAUUUGCUCUCUU (ssRNA) [Ic_S1_P5E.1_K5.1_C5.1_H5.1_A5.1_[T5A]_[A7T]_F5.1_[T9G]_[A10C]_T5.1]	81.9
UCUCUUUGUAUACGACUCUCUU (ssRNA) [Ic_S1_P5E.1_K5.1_C5.1_H5.1_A5.1_[T6A]_[A7C]_F5.1_[T8G]_[T9A]_[A10C]_T5.1]	49
UCUCUUUGUACAUCCAUCUCUU (ssRNA) [Ic_S1_P5E.1_K5.1_C5.1_H5.1_A5.1_[T5C]_[T6A]_[A7T]_F5.1_[T8C]_[T9C]_T5.1]	29.4

Binder	Kd [nM]
UCUCUUUUUUUAUAUCUCUU (ssRNA) [Ib_S1_P3E.1_K3.1_C3.1_H3.1_[G2T]_[A4T]_A3.1_F3.1_T3.1]	> 2300
UCUCUUUGUAUCGCCAUCUCUU (ssRNA) [Ic_S1_P5E.1_K5.1_C5.1_H5.1_A5.1_[T6C]_[A7G]_F5.1_[T8C]_[T9C]_T5.1]	919
UCUCUUUGUACCUGCUUCUCUU (ssRNA) [Ic_S1_P5E.1_K5.1_C5.1_H5.1_A5.1_[T5C]_[T6C]_[A7T]_F5.1_[T8G]_[T9C]_[A10T]_T5.1]	378
UCUCUUUGUAAUACCUUCUCUU (ssRNA) [Ic_S1_P5E.1_K5.1_C5.1_H5.1_A5.1_[T5A]_F5.1_[T8C]_[T9C]_[A10T]_T5.1]	690
UCUCUUUGUAGCUGCCUCUCUU (ssRNA) [Ic_S1_P5E.1_K5.1_C5.1_H5.1_A5.1_[T5G]_[T6C]_[A7T]_F5.1_[T8G]_[T9C]_[A10C]_T5.1]	> 2300
UCUCUUUGUAUUUUCUUCUCUU (ssRNA) [Ic_S1_P5E.1_K5.1_C5.1_H5.1_A5.1_[A7T]_F5.1_[T9C]_[A10T]_T5.1]	34.8
UCUCUUUGUACCCUUUUCUCUU (ssRNA) [Ic_S1_P5E.1_K5.1_C5.1_H5.1_A5.1_[T5C]_[T6C]_[A7C]_F5.1_[A10T]_T5.1]	35.9
UCUCUUUGUAUAUUCCUCUCUU (ssRNA) [Ic_S1_P5E.1_K5.1_C5.1_H5.1_A5.1_[T6A]_[A7T]_F5.1_[T9C]_[A10C]_T5.1]	5.93
UCUCUUUGACUAUAUCUCUU (ssRNA) [Ib_S1_P3E.1_K3.1_C3.1_H3.1_[T3A]_[A4C]_A3.1_F3.1_T3.1]	> 2300
UCUCUUUGUAAUAACUUCUCUU (ssRNA) [Ic_S1_P5E.1_K5.1_C5.1_H5.1_A5.1_[T5A]_F5.1_[T8A]_[T9C]_[A10T]_T5.1]	1100
UCUCUUUGUACUUACGUCUCUU (ssRNA) [Ic_S1_P5E.1_K5.1_C5.1_H5.1_A5.1_[T5C]_[A7T]_F5.1_[T8A]_[T9C]_[A10G]_T5.1]	504
UCUCUUUGUACUGCACUCUCUU (ssRNA) [Ic_S1_P5E.1_K5.1_C5.1_H5.1_A5.1_[T5C]_[A7G]_F5.1_[T8C]_[T9A]_[A10C]_T5.1]	724
UCUCUUUGUACAAUCUUCUCUU (ssRNA) [Ic_S1_P5E.1_K5.1_C5.1_H5.1_A5.1_[T5C]_[T6A]_F5.1_[T9C]_[A10T]_T5.1]	25.9
UCUCUUUGUAAAUCAGUCUCUU (ssRNA) [Ic_S1_P5E.1_K5.1_C5.1_H5.1_A5.1_[T5A]_[T6A]_[A7T]_F5.1_[T8C]_[T9A]_[A10G]_T5.1]	26.1
UCUCUUUGUAGCCCAAUCUCUU (ssRNA) [Ic_S1_P5E.1_K5.1_C5.1_H5.1_A5.1_[T5G]_[T6C]_[A7C]_F5.1_[T8C]_[T9A]_T5.1]	> 2300
UCUCUUUGUACCCCAAUCUCUU (ssRNA) [Ic_S1_P5E.1_K5.1_C5.1_H5.1_A5.1_[T5C]_[T6C]_[A7C]_F5.1_[T8C]_[T9A]_T5.1]	1350
UCUCUUUGUACCUAGCUCUCUU (ssRNA) [Ic_S1_P5E.1_K5.1_C5.1_H5.1_A5.1_[T5C]_[T6C]_[A7T]_F5.1_[T8A]_[T9G]_[A10C]_T5.1]	114
UCUCUUUGUAAUCAUCUCUCUU (ssRNA) [Ic_S1_P5E.1_K5.1_C5.1_H5.1_A5.1_[T5A]_[A7C]_F5.1_[T8A]_[A10C]_T5.1]	482
UCUCUUUGUAUUCGUUUCUCUU (ssRNA) [Ic_S1_P5E.1_K5.1_C5.1_H5.1_A5.1_[A7C]_F5.1_[T8G]_[A10T]_T5.1]	378
UCUCUUUGUAUCGAUCUCUCUU (ssRNA) [Ic_S1_P5E.1_K5.1_C5.1_H5.1_A5.1_[T6C]_[A7G]_F5.1_[T8A]_[A10C]_T5.1]	1870
UCUCUUUGUAAACCGCUCUCUU (ssRNA) [Ic_S1_P5E.1_K5.1_C5.1_H5.1_A5.1_[T5A]_[T6A]_[A7C]_F5.1_[T8C]_[T9G]_[A10C]_T5.1]	625
UCUCUUUGUACAUUACUCUCUU (ssRNA) [Ic_S1_P5E.1_K5.1_C5.1_H5.1_A5.1_[T5C]_[T6A]_[A7T]_F5.1_[T9A]_[A10C]_T5.1]	0.694

Binder	Kd [nM]
UCUCUUUGUAUACGUUUCUCUU (ssRNA) [Ic_S1_P5E.1_K5.1_C5.1_H5.1_A5.1_[T6A]_[A7C]_F5.1_[T8G]_[A10T]_T5.1]	43.4
UCUCUUUGUAUUCCAAUCUCUU (ssRNA) [Ic_S1_P5E.1_K5.1_C5.1_H5.1_A5.1_[A7C]_F5.1_[T8C]_[T9A]_T5.1]	526
UCUCUUUGUAUGUAAGUCUCUU (ssRNA) [Ic_S1_P5E.1_K5.1_C5.1_H5.1_A5.1_[T6G]_[A7T]_F5.1_[T8A]_[T9A]_[A10G]_T5.1]	446
UCUCUUUGUAUCUAUAUCUCUU (ssRNA) [Ic_S1_P5E.1_K5.1_C5.1_H5.1_A5.1_[T6C]_[A7T]_F5.1_[T8A]_T5.1]	11.5
UCUCUUUGUAUGCCAUUCUCUU (ssRNA) [Ic_S1_P5E.1_K5.1_C5.1_H5.1_A5.1_[T6G]_[A7C]_F5.1_[T8C]_[T9A]_[A10T]_T5.1]	100
UCUCUUUGUAAUAAUGUCUCUU (ssRNA) [Ic_S1_P5E.1_K5.1_C5.1_H5.1_A5.1_[T5A]_F5.1_[T8A]_[A10G]_T5.1]	521
UCUCUUUGUAGCGUAAUCUCUU (ssRNA) [Ic_S1_P5E.1_K5.1_C5.1_H5.1_A5.1_[T5G]_[T6C]_[A7G]_F5.1_[T9A]_T5.1]	300
UCUCUUUGUACCCCUCUCUCUU (ssRNA) [Ic_S1_P5E.1_K5.1_C5.1_H5.1_A5.1_[T5C]_[T6C]_[A7C]_F5.1_[T8C]_[A10C]_T5.1]	1240
UCUCUUUGUAUCUUGAUCUCUU (ssRNA) [Ic_S1_P5E.1_K5.1_C5.1_H5.1_A5.1_[T6C]_[A7T]_F5.1_[T9G]_T5.1]	72.1
UCUCUUUGUAAUUCACUCUCUU (ssRNA) [Ic_S1_P5E.1_K5.1_C5.1_H5.1_A5.1_[T5A]_[A7T]_F5.1_[T8C]_[T9A]_[A10C]_T5.1]	734
UCUCUUUGUACUGUGUUCUCUU (ssRNA) [Ic_S1_P5E.1_K5.1_C5.1_H5.1_A5.1_[T5C]_[A7G]_F5.1_[T9G]_[A10T]_T5.1]	27.2
UCUCUUUGUAACACCAUCUCUU (ssRNA) [Ic_S1_P5E.1_K5.1_C5.1_H5.1_A5.1_[T5A]_[T6C]_F5.1_[T8C]_[T9C]_T5.1]	111
UCUCUUUGUACCACCGUCUCUU (ssRNA) [Ic_S1_P5E.1_K5.1_C5.1_H5.1_A5.1_[T5C]_[T6C]_F5.1_[T8C]_[T9C]_[A10G]_T5.1]	821
UCUCUUUGUAUUGGUUUCUCUU (ssRNA) [Ic_S1_P5E.1_K5.1_C5.1_H5.1_A5.1_[A7G]_F5.1_[T8G]_[A10T]_T5.1]	711
UCUCUUUGUACUCACGUCUCUU (ssRNA) [Ic_S1_P5E.1_K5.1_C5.1_H5.1_A5.1_[T5C]_[A7C]_F5.1_[T8A]_[T9C]_[A10G]_T5.1]	1100
UCUCUUUGUAGCUGGUUCUCUU (ssRNA) [Ic_S1_P5E.1_K5.1_C5.1_H5.1_A5.1_[T5G]_[T6C]_[A7T]_F5.1_[T8G]_[T9G]_[A10T]_T5.1]	> 2300
UCUCUUUGUACCGUCCUCUCUU (ssRNA) [Ic_S1_P5E.1_K5.1_C5.1_H5.1_A5.1_[T5C]_[T6C]_[A7G]_F5.1_[T9C]_[A10C]_T5.1]	1540
UCUCUUUGUAGCUUGAUCUCUU (ssRNA) [Ic_S1_P5E.1_K5.1_C5.1_H5.1_A5.1_[T5G]_[T6C]_[A7T]_F5.1_[T9G]_T5.1]	651
UCUCUUUCUUUAUAUCUCUU (ssRNA) [Ib_S1_P3E.1_K3.1_C3.1_H3.1_[G2C]_[A4T]_A3.1_F3.1_T3.1]	> 2300
UCUCUUUGUAGCUUACUCUCUU (ssRNA) [Ic_S1_P5E.1_K5.1_C5.1_H5.1_A5.1_[T5G]_[T6C]_[A7T]_F5.1_[T9A]_[A10C]_T5.1]	19.2
